# From the supplement of paper PMC10567573
# B1: SPOPL (parent)
# chain: PDDKLTLFCEVSVVQDSVNISGHT
# B2: KLHL14 (parent)
# chain: NETGYLSSVECYNLETNEWRYVSS
# Variants of: B1
# Assay: protein stability index of a GFP-peptide fusion (GPS, HEK-293T) (PSI 1-6); higher = more stable
# Conditions: c terminus: a fixed tail appended
# 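Note: lentivirally expressed fusions sorted by FACS into six bins by GFP to DsRed ratio, PSI derived from sequencing read proportions per bin multiplied by bin number.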
row,Variant,protein stability index
1,IDDKLTLFCEVSVVQDSVNISGHT,3.71
2,QDDKLTLFCEVSVVQDSVNISGHT,2.02
3,KDDKLTLFCEVSVVQDSVNISGHT,2.02
4,SDDKLTLFCEVSVVQDSVNISGHT,2.05
5,VDDKLTLFCEVSVVQDSVNISGHT,1.36
6,GDDKLTLFCEVSVVQDSVNISGHT,1.99
7,MDDKLTLFCEVSVVQDSVNISGHT,1.81
8,EDDKLTLFCEVSVVQDSVNISGHT,2.2
9,DDDKLTLFCEVSVVQDSVNISGHT,2.17
10,LDDKLTLFCEVSVVQDSVNISGHT,2.2
11,NDDKLTLFCEVSVVQDSVNISGHT,2.42
12,HDDKLTLFCEVSVVQDSVNISGHT,2.18
13,ADDKLTLFCEVSVVQDSVNISGHT,1.81
14,WDDKLTLFCEVSVVQDSVNISGHT,2.11
15,CDDKLTLFCEVSVVQDSVNISGHT,1.93
16,FDDKLTLFCEVSVVQDSVNISGHT,2.36
17,YDDKLTLFCEVSVVQDSVNISGHT,1.69
18,RDDKLTLFCEVSVVQDSVNISGHT,2.1
19,TDDKLTLFCEVSVVQDSVNISGHT,2
20,PDAKLTLFCEVSVVQDSVNISGHT,2.06
21,PDFKLTLFCEVSVVQDSVNISGHT,1.87
22,PDEKLTLFCEVSVVQDSVNISGHT,2.2
23,PDIKLTLFCEVSVVQDSVNISGHT,2.06

row,Variant,protein stability index
1,PDKKLTLFCEVSVVQDSVNISGHT,1.83
2,PDGKLTLFCEVSVVQDSVNISGHT,2.43
3,PDCKLTLFCEVSVVQDSVNISGHT,1.75
4,PDHKLTLFCEVSVVQDSVNISGHT,1.47
5,PRDKLTLFCEVSVVQDSVNISGHT,2.53
6,PWDKLTLFCEVSVVQDSVNISGHT,3.07
7,PVDKLTLFCEVSVVQDSVNISGHT,3.9
8,PGDKLTLFCEVSVVQDSVNISGHT,2.44
9,PFDKLTLFCEVSVVQDSVNISGHT,1.5
10,PADKLTLFCEVSVVQDSVNISGHT,1.61
11,PIDKLTLFCEVSVVQDSVNISGHT,2.02
12,PCDKLTLFCEVSVVQDSVNISGHT,1.62
13,PMDKLTLFCEVSVVQDSVNISGHT,1.61
14,PYDKLTLFCEVSVVQDSVNISGHT,1.38
15,PQDKLTLFCEVSVVQDSVNISGHT,3.11
16,PSDKLTLFCEVSVVQDSVNISGHT,1.74
17,PLDKLTLFCEVSVVQDSVNISGHT,1.46
18,PKDKLTLFCEVSVVQDSVNISGHT,2.02
19,PTDKLTLFCEVSVVQDSVNISGHT,1.38
20,PPDKLTLFCEVSVVQDSVNISGHT,2.71
21,PEDKLTLFCEVSVVQDSVNISGHT,2.29
22,PHDKLTLFCEVSVVQDSVNISGHT,2.04
23,PNDKLTLFCEVSVVQDSVNISGHT,1.44

# Variants of: B2
# Assay: as above
# Conditions: c terminus: a fixed tail appended
row,Variant,protein stability index
1,NETGYLSSVECYNLETSEWRYVSS,4.14
2,NETGYLSSVECYNLETMEWRYVSS,3.19
3,NETGYLSSVECYNLETLEWRYVSS,3.66
4,NETGYLSSVECYNLETWEWRYVSS,2.25
5,NETGYLSSVECYNLETYEWRYVSS,2.64
6,NETGYLSSVECYNLETTEWRYVSS,3.01
7,NETGYLSSVECYNLETVEWRYVSS,3.06
8,NETGYLSSVECYNLETKEWRYVSS,3.72
9,NETGYLSSVECYNLETQEWRYVSS,4.06
10,NETGYLSSVECYNLETPEWRYVSS,3.42
11,NETGYLSSVECYNLETREWRYVSS,3.01
12,NETGYLSSVECYNLETNEWRYVSQ,3.6
13,NETGYLSSVECYNLETNEWRYVSV,3.38
14,NETGYLSSVECYNLETNEWRYVSK,4.28
15,NETGYLSSVECYNLETNEWRYVSP,4.2
16,NETGYLSSVECYNLETNEWRYVSC,4
17,NETGYLSSVECYNLETNEWRYVSA,4.1
18,NETGYLSSVECYNLETNEWRYVSH,3.82
19,NETGYLSSVECYNLETNEWRYVSY,3.19
20,NETGYLSSVECYNLETNEWRYVSE,3.77
21,NETGYLSSVECYNLETNEWRYVSD,3.83
22,NETGYLSSVECYNLETNEWRYVSN,3.91
23,NETGYLSSVECYNLETNEWRYVSG,3.82
24,NETGYLSSVECYNLETNEWRYVSF,3.94

row,Variant,protein stability index
1,NETGYLSSVECYNLETNEWRYVSR,3.61
2,NETGYLSSVECYNLETNEWRYVSW,3.44
3,NETGYLSSVECYNLETNEWRYVSL,3.41
4,NETGYLSSVECYNLETNEWRYVSI,3.02
5,NETGYLSSVECYNLETNEWRYVST,3.65
6,NETGYLSSVECYNLETNEWRYVSM,3.93
7,NETGYLSSVECYNLETNEWRMVSS,3.82
8,NETGYLSSVECYNLETNEWRWVSS,3.5
9,NETGYLSSVECYNLETNEWRAVSS,3.79
10,NETGYLSSVECYNLETNEWRKVSS,2.89
11,NETGYLSSVECYNLETNEWRCVSS,3.57
12,NETGYLSSVECYNLETNEWRRVSS,3.24
13,NETGYLSSVECYNLETNEWRPVSS,3.21
14,NETGYLSSVECYNLETNEWRGVSS,3.14
15,NETGYLSSVECYNLETNEWRLVSS,3.1
16,NETGYLSSVECYNLETNEWRFVSS,1.83
17,NETGYLSSVECYNLETNEWRNVSS,3.67
18,NETGYLSSVECYNLETNEWREVSS,3.66
19,NETGYLSSVECYNLETNEWRHVSS,2.96
20,NETGYLSSVECYNLETNEWRTVSS,3.93
21,NETGYLSSVECYNLETNEWRDVSS,4
22,NETGYLSSVECYNLETNEWRSVSS,3.61
23,NETGYLSSVECYNLETNEWRIVSS,2.87
24,NETGYLSSVECYNLETNEWRVVSS,3.57

row,Variant,protein stability index
1,NETGYLSSVECYNLETNEWRQVSS,3.02
2,NETGYLSSVECYNLETNEQRYVSS,4.31
3,NETGYLSSVECYNLETNEFRYVSS,4.71
4,NETGYLSSVECYNLETNEYRYVSS,4.5
5,NETGYLSSVECYNLETNEVRYVSS,4.58
6,NETGYLSSVECYNLETNEMRYVSS,4.36
7,NETGYLSSVECYNLETNETRYVSS,4.99
8,NETGYLSSVECYNLETNESRYVSS,5.26
9,NETGYLSSVECYNLETNECRYVSS,4.26
10,NETGYLSSVECYNLETNEIRYVSS,4.75
11,NETGYLSSVECYNLETNELRYVSS,4.37
12,NETGYLSSVECYNLETNEDRYVSS,4.83
13,NETGYLSSVECYNLETNERRYVSS,4.92
14,NETGYLSSVECYNLETNEKRYVSS,5.08
15,NETGYLSSVECYNLETNEARYVSS,4.75
16,NETGYLSSVECYNLETNEPRYVSS,3.66
17,NETGYLSSVECYNLETNENRYVSS,5.05
18,NETGYLSSVECYNLETNEHRYVSS,4.77
19,NETGYLSSVECYNLETNEERYVSS,4.97
20,NETGYLSSVECYNLETNSWRYVSS,2.9
21,NETGYLSSVECYNLETNNWRYVSS,3.49
22,NETGYLSSVECYNLETNGWRYVSS,2.36
23,NETGYLSSVECYNLETNWWRYVSS,2.15
24,NETGYLSSVECYNLETNVWRYVSS,2.62

row,Variant,protein stability index
1,NETGYLSSVECYNLETNKWRYVSS,3.48
2,NETGYLSSVECYNLETNTWRYVSS,3.22
3,NETGYLSSVECYNLETNYWRYVSS,2.57
4,NETGYLSSVECYNLETNHWRYVSS,2.94
5,NETGYLSSVECYNLETNMWRYVSS,2.92
6,NETGYLSSVECYNLETNAWRYVSS,2.83
7,NETGYLSSVECYNLETNIWRYVSS,2.68
8,NETGYLSSVECYNLETNRWRYVSS,3.68
9,NETGYLSSVECYNLETNFWRYVSS,3.41
10,NETGYLSSVECYNLETNQWRYVSS,2.93
11,NETGYLSSVECYNLETNPWRYVSS,2.58
12,NETGYLSSVECYNLETNLWRYVSS,3.02
13,NETGYLSSVECYNLETNCWRYVSS,2.55
14,NETGYLSSVECYNLETNDWRYVSS,3.72
15,NETGYLSSVECYNLETNEWRYASS,3.42
16,NETGYLSSVECYNLETNEWRYYSS,3.02
17,NETGYLSSVECYNLETNEWRYRSS,3.2
18,NETGYLSSVECYNLETNEWRYGSS,3.85
19,NETGYLSSVECYNLETNEWRYISS,2.47
20,NETGYLSSVECYNLETNEWRYESS,4.18
21,NETGYLSSVECYNLETNEWRYNSS,3.27
22,NETGYLSSVECYNLETNEWRYHSS,2.18
23,NETGYLSSVECYNLETNEWRYQSS,3.73
24,NETGYLSSVECYNLETNEWRYDSS,3.8

row,Variant,protein stability index
1,NETGYLSSVECYNLETNEWRYSSS,2.71
2,NETGYLSSVECYNLETNEWRYLSS,2.81
3,NETGYLSSVECYNLETNEWRYTSS,3.01
4,NETGYLSSVECYNLETNEWRYFSS,2.14
5,NETGYLSSVECYNLETNEWRYPSS,3.16
6,NETGYLSSVECYNLETNEWRYMSS,2.95
7,NETGYLSSVECYNLETNEWRYWSS,2.22
8,NETGYLSSVECYNLETNEWRYKSS,3.25
9,NETGYLSSVECYNLETNEWRYCSS,2.29
10,NETGYLSSVECYNLETNEWRYVCS,3.22
11,NETGYLSSVECYNLETNEWRYVHS,3.26
12,NETGYLSSVECYNLETNEWRYVIS,4.09
13,NETGYLSSVECYNLETNEWRYVLS,2.07
14,NETGYLSSVECYNLETNEWRYVRS,2.87
15,NETGYLSSVECYNLETNEWRYVVS,3.76
16,NETGYLSSVECYNLETNEWRYVPS,3.39
17,NETGYLSSVECYNLETNEWRYVQS,3.73
18,NETGYLSSVECYNLETNEWRYVTS,3.38
19,NETGYLSSVECYNLETNEWRYVYS,3.71
20,NETGYLSSVECYNLETNEWRYVAS,3.19
21,NETGYLSSVECYNLETNEWRYVDS,4.24
22,NETGYLSSVECYNLETNEWRYVNS,3.98
23,NETGYLSSVECYNLETNEWRYVMS,3.59
24,NETGYLSSVECYNLETNEWRYVFS,3.67

row,Variant,protein stability index
1,NETGYLSSVECYNLETNEWRYVKS,3.27
2,NETGYLSSVECYNLETNEWRYVES,3.68
3,NETGYLSSVECYNLETNEWRYVGS,4.02
4,NETGYLSSVECYNLETNEWLYVSS,1.88
5,NETGYLSSVECYNLETNEWPYVSS,3.35
6,NETGYLSSVECYNLETNEWNYVSS,3.51
7,NETGYLSSVECYNLETNEWCYVSS,2.43
8,NETGYLSSVECYNLETNEWAYVSS,2.95
9,NETGYLSSVECYNLETNEWDYVSS,4.12
10,NETGYLSSVECYNLETNEWGYVSS,3.06
11,NETGYLSSVECYNLETNEWSYVSS,3.04
12,NETGYLSSVECYNLETNEWVYVSS,2.32
13,NETGYLSSVECYNLETNEWWYVSS,2.41
14,NETGYLSSVECYNLETNEWTYVSS,2.69
15,NETGYLSSVECYNLETNEWFYVSS,2.2
16,NETGYLSSVECYNLETNEWKYVSS,3.6
17,NETGYLSSVECYNLETNEWYYVSS,2.18
18,NETGYLSSVECYNLETNEWEYVSS,4.04
19,NETGYLSSVECYNLETNEWMYVSS,2.65
20,NETGYLSSVECYNLETNEWQYVSS,3.49
21,NETGYLSSVECYNLETNEWHYVSS,2.83
22,NETGYLSSVECYNLETNEWIYVSS,2.3
